For assay [1], the target named is H1HA10 (influenza A virus H1N1 A/Puerto Rico/8/34) (UniProt A4GCI6).
The target in assay [2] is full-length H1N1 A/Puerto Rico/8/34 recombinant HA (rHA) (influenza A virus H1N1 A/Puerto Rico/8/34) (UniProt P03452).

This is an account of results in patent US20170204142A1.

Take CR6261 IgG (antibody): in assay [1], the Kd was found to be 315 nM, the dissociation rate constant (koff) was 0.00785 s⁻¹ and the kon was found to be 24900 M⁻¹ s⁻¹. Also, in assay [2], the Kd amounted to 8.9 nM, the koff amounted to 0.00258 s⁻¹ and the on-rate constant (kon) turned out to be 289000 M⁻¹ s⁻¹.
Turning to FI6v3-scFv, in assay [2], the dissociation constant Kd amounted to 8.8 nM, the off-rate constant (koff) amounted to 0.00216 s⁻¹ and the kon was 245000 M⁻¹ s⁻¹.
Taken in the same sequence, the figures for F10-scFv were 2.9 nM, 0.00121 s⁻¹ and 415000 M⁻¹ s⁻¹.

A word on the Kd: it is the constant that tells how readily two partners part at equilibrium. A word on the koff: it is the first-order rate constant of dissociation. The term kon denotes a measure of how fast the partners come together.
